Results published in PMC4895385, “The ubiquitin E3 ligase TRAF6 exacerbates pathological cardiac hypertrophy via TAK1-dependent signalling” (Nature Communications, 2016).

Molecular target: T1, FLAG-tagged TAK1 (pcDNA5-FLAG-TAK1) (human, UniProt O43318-2 1-579)
T1 construct: TAK1 (MAP3K7), human, gene cloned into pcDNA5-FLAG-C1; the truncates end at residue 579, so the 579-residue isoform is meant; source: HEK293T, transfected, in lysate; immunopurified from HEK293T (eluted with FLAG peptide) for the GST pull-down
T1 sequence (looked up): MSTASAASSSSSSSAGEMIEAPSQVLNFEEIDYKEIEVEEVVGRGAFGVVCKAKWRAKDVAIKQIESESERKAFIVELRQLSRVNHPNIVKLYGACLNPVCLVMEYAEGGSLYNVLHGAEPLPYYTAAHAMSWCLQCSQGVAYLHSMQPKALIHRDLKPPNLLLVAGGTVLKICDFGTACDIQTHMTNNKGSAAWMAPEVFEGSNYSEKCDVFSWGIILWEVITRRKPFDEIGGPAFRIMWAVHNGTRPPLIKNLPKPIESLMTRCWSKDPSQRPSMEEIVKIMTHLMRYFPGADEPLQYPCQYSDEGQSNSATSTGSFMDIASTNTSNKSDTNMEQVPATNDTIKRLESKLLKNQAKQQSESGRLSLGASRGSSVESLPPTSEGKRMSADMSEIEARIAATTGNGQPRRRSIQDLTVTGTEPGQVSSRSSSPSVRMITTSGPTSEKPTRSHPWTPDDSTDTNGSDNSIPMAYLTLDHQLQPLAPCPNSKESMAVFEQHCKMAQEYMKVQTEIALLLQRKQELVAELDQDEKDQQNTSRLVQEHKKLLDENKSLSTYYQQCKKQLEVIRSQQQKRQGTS
Assay: pull-down; GST-TRAF6 retained on glutathione-Sepharose 4B beads, incubated 4 h at 4 °C with immunopurified Flag-TAK1 from HEK293T cells; eluted with 20 mM reduced glutathione; blot with anti-FLAG
Conditions: both partners purified

B1: GST-tagged TRAF6 (pGEX-4T-1-GST-TRAF6) (natural protein, human, UniProt Q9Y4K3 1-522, looked up)
chain: MSLLNCENSCGSSQSESDCCVAMASSCSAVTKDDSVGGTASTGNLSSSFMEEIQGYDVEFDPPLESKYECPICLMALREAVQTPCGHRFCKACIIKSIRDAGHKCPVDNEILLENQLFPDNFAKREILSLMVKCPNEGCLHKMELRHLEDHQAHCEFALMDCPQCQRPFQKFHINIHILKDCPRRQVSCDNCAASMAFEDKEIHDQNCPLANVICEYCNTILIREQMPNHYDLDCPTAPIPCTFSTFGCHEKMQRNHLARHLQENTQSHMRMLAQAVHSLSVIPDSGYISEVRNFQETIHQLEGRLVRQDHQIRELTAKMETQSMYVSELKRTIRTLEDKVAEIEAQQCNGIYIWKIGNFGMHLKCQEEEKPVVIHSPGFYTGKPGYKLCMRLHLQLPTAQRCANYISLFVHTMQGEYDSHLPWPFQGTIRLTILDQSEAPVRQNHEEIMDAKPELLAFQRPTIPRNPKGFGYVTFMHLEALRQRTFIKDDTLLVRCEVSTRFDMGSLRREGFQPRSTDAGV
notes: TRAF6, human, gene cloned into pGEX-4T-1; pGEX-4T-1 normally places GST at the N-terminus (surmised); source: E. coli Rosetta (DE3), retained on glutathione-Sepharose 4B beads and washed
**Q.** Does B1 bind?
**A.** binds
